# According to patent US20130005646A1 (Novo Nordisk, published 2013):
# Starred links: 1 amine or outer side, 2 acyl side, 3 side chain; linkers in the order of their positions; H or OH if unused. Positions of bridges follow the written chain, without caps; N, C: chain ends. *: point of attachment. C20 diacid = O=C(O)CCCCCCCCCCCCCCCCCCC(=O)*; 19‑carboxyheptadecanoyl = not defined here; γGlu = O=C(O)[C@H](CCC(=O)[*:2])N[*:1]; AEEA = NCCOCCOCC(=O)O
# T1: human amylin 3(a) receptor (human calcitonin receptor + RAMP-3) (human, UniProt P30988 25-474; O60896 24-148)
# T1 sequence (looked up) 1: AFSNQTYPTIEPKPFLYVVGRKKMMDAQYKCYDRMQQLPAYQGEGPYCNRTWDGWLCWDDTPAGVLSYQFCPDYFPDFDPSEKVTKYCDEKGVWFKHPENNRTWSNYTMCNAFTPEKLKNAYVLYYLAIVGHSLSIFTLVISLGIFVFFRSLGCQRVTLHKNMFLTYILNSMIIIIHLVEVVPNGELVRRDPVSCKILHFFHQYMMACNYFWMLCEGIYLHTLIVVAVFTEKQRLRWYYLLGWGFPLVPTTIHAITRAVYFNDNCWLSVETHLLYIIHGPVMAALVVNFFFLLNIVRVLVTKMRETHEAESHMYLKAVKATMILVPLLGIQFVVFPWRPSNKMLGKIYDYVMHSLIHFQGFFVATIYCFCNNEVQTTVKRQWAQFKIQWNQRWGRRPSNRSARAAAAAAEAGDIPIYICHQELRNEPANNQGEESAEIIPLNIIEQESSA
# T1 sequence (looked up) 2: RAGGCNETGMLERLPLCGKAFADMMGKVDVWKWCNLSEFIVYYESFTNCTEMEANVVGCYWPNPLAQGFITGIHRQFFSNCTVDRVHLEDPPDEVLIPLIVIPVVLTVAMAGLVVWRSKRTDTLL
# T2: human calcitonin (a) receptor (human, UniProt P30988 25-474)
# T2 sequence (looked up): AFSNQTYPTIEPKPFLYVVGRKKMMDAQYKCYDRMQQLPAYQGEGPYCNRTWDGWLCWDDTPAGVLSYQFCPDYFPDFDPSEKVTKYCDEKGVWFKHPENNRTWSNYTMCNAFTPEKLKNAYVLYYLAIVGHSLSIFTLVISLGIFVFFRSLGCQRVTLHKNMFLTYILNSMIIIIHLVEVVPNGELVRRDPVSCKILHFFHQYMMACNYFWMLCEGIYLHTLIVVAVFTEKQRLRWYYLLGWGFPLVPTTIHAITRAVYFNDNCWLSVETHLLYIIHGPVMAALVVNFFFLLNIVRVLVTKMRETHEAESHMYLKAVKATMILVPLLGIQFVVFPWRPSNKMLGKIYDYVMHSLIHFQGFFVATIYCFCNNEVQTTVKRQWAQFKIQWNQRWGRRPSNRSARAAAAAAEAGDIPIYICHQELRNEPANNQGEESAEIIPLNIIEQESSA
# Tests used:
# [1] = biological target: T1, human amylin 3(a) receptor (human …); test: cell-based or functional assay
# [2] = biological target: T2, human calcitonin (a) receptor; test: cell-based or functional assay
Amylin receptor human EC50 [1] [nM],CTa receptor human EC50 [2] [nM],Binder
0.602,4.3,{C20 diacid-γGlu}-HCNTATCETQRLAEFLHRSSNNFGPILPPTNVGSNTY-NH2 (disulfide 2-7; SMILES CC[C@H](C)[C@H](NC(=O)[C@@H]1CCCN1C(=O)CNC(=O)[C@H](Cc1ccccc1)NC(=O)[C@H](CC(N)=O)NC(=O)[C@H](CC(N)=O)NC(=O)[C@H](CO)NC(=O)[C@H](CO)NC(=O)[C@H](CCCNC(=N)N)NC(=O)[C@H](Cc1c[nH]cn1)NC(=O)[C@H](CC(C)C)NC(=O)[C@H](Cc1ccccc1)NC(=O)[C@H](CCC(=O)O)NC(=O)[C@H](C)NC(=O)[C@H](CC(C)C)NC(=O)[C@H](CCCNC(=N)N)NC(=O)[C@H](CCC(N)=O)NC(=O)[C@@H](NC(=O)[C@H](CCC(=O)O)NC(=O)[C@@H]1CSSC[C@H](NC(=O)[C@H](Cc2c[nH]cn2)NC(=O)CC[C@H](NC(=O)CCCCCCCCCCCCCCCCCCC(=O)O)C(=O)O)C(=O)N[C@@H](CC(N)=O)C(=O)N[C@@H]([C@@H](C)O)C(=O)N[C@@H](C)C(=O)N[C@@H]([C@@H](C)O)C(=O)N1)[C@@H](C)O)C(=O)N[C@@H](CC(C)C)C(=O)N1CCC[C@H]1C(=O)N1CCC[C@H]1C(=O)N[C@H](C(=O)N[C@@H](CC(N)=O)C(=O)N[C@H](C(=O)NCC(=O)N[C@@H](CO)C(=O)N[C@@H](CC(N)=O)C(=O)N[C@H](C(=O)N[C@@H](Cc1ccc(O)cc1)C(N)=O)[C@@H](C)O)C(C)C)[C@@H](C)O)
0.203,0.113,"{19‑carboxyheptadecanoyl-γGlu-AEEA-AEEA}-KCNTATCATQRLAEFLHHSSENFGPILPPTNVGSNTP-NH2 (disulfide 2-7; reading uncertain; also: printed as N-alpha-[2-(2-{2-[2-(2-{2-[(S)-4-Carboxy-4-(19-carboxyheptadecanoylamino)butyrylamino]ethoxy}ethoxy)acetylamino]ethoxy}ethoxy)acetyl]-[Glu14,His17,Glu21,Pro37]-pramlintide)"
0.09,0.076,{C20 diacid-γGlu}-KCNTATCATQRLAEFLVRSSSSFGPILSSTDVGSDTP-NH2 (disulfide 2-7; SMILES CC[C@H](C)[C@H](NC(=O)[C@@H]1CCCN1C(=O)CNC(=O)[C@H](Cc1ccccc1)NC(=O)[C@H](CO)NC(=O)[C@H](CO)NC(=O)[C@H](CO)NC(=O)[C@H](CO)NC(=O)[C@H](CCCNC(=N)N)NC(=O)[C@@H](NC(=O)[C@H](CC(C)C)NC(=O)[C@H](Cc1ccccc1)NC(=O)[C@H](CCC(=O)O)NC(=O)[C@H](C)NC(=O)[C@H](CC(C)C)NC(=O)[C@H](CCCNC(=N)N)NC(=O)[C@H](CCC(N)=O)NC(=O)[C@@H](NC(=O)[C@H](C)NC(=O)[C@@H]1CSSC[C@H](NC(=O)[C@H](CCCCN)NC(=O)CC[C@H](NC(=O)CCCCCCCCCCCCCCCCCCC(=O)O)C(=O)O)C(=O)N[C@@H](CC(N)=O)C(=O)N[C@@H]([C@@H](C)O)C(=O)N[C@@H](C)C(=O)N[C@@H]([C@@H](C)O)C(=O)N1)[C@@H](C)O)C(C)C)C(=O)N[C@@H](CC(C)C)C(=O)N[C@@H](CO)C(=O)N[C@@H](CO)C(=O)N[C@H](C(=O)N[C@@H](CC(=O)O)C(=O)N[C@H](C(=O)NCC(=O)N[C@@H](CO)C(=O)N[C@@H](CC(=O)O)C(=O)N[C@H](C(=O)N1CCC[C@H]1C(N)=O)[C@@H](C)O)C(C)C)[C@@H](C)O)
0.071,0.085,"{19‑carboxyheptadecanoyl-γGlu-AEEA-AEEA}-KCNTATCATQRLAEFLHHSSKNFGPILPPTNVGSNTP-NH2 (disulfide 2-7; reading uncertain; also: printed as N-alpha-[2-(2-{2-[2-(2-{2-[(S)-4-Carboxy-4-(19-carboxyheptadecanoylamino)butyrylamino]ethoxy}ethoxy)acetylamino]ethoxy}ethoxy)acetyl]-[Glu14,His17,Lys21,Pro37]-pramlintide)"
